Reference: US20020025569A1 (GPC BIOTECH, published 2002)

T1: GST-fusion protein containing amino acids 696-902 of human cdc4
T1 sequence: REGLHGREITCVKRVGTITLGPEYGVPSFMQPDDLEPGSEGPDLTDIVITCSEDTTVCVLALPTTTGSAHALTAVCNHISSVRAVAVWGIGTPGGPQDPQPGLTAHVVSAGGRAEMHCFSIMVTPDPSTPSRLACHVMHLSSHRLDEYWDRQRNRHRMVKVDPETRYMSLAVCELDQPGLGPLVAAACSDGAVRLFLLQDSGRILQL

B1: mouse cdc4 (clone from a mouse cDNA-VP16 fusion library; 486 base pair fragment) (other, not shown: large carriers)
chain: TFTHEAPNQRRRLILCSAATDGSLAFWDLTTAMDKGSTTLELPAHPGLPYQMGTPSMTVQAHSCGVNSLHTLPTPEGHHLVASGSEDGSLHVFTLAVKMPEPEEADGEAELVPQLCVLEEYSVPCAHAAHVTGVKILSPKLMVSASIDQRLTFWRLGQGEPP
notes: VP16 is placed first from knowledge of such libraries; also called mu-cdc4; mcdc4

How the values were obtained:
[1] = test system: T1, GST-fusion protein containing amino acids 696-902 of human cdc4
[2] = biological target: T2, human p19 skp1, expressed as a LexA fusion protein from vector pBTM116 (human, UniProt P63208 1-163, limits assumed); test: yeast two-hybrid (LexA-skp1 bait, mouse cDNA-VP16 library)
T2 construct: Bait of the yeast two-hybrid screen in S. cerevisiae L40; also called human skp1
Protocol: A full length cDNA encoding a mouse homolog of yeast cdc4 protein was cloned through its ability to specifically interact with human p19 skp1 in a yeast two hybrid system. Briefly, human skp1 was cloned into the vector pBTM116 for expression as a LexA fusion protein. This construct was transformed into S. Cerevisiae strain L40 (MATa his3 200 trp1-900 leu2-3,112 ade LYS2::lexAop)₄-HIS3 URA3::(lexAop)₈-lacZ GAL4). Skp1 interacting clones were selected in the presence of 1 mM 3-aminotriazole after transformation of a mouse cDNA-VP16 fusion library. Specificity of the interacting clones was assessed with the D. Melanogaster daughterless gene.

T2 sequence (P63208 whole entry, the tested form may be a part): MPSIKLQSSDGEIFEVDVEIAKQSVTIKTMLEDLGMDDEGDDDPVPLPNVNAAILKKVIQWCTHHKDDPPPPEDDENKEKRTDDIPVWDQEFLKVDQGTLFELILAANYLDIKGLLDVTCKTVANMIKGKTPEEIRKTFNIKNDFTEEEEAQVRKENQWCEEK

Row | Molecule | in vitro ubiquitination reaction (E1, E2, biotinylated ubiquitin; streptavidin-HRP after non-reducing SDS-PAGE) [1] | binding result [2]
1 | UBC2 | though to a lesser extent, UBC2 | 
2 | UBC4 | cdc4 polypeptide was found to be ubiquitinated by UBC4 | 
3 | B1 |  | binds
